Test system: Swiss albino male mice
Format: in vivo
Conditions: mouse, in vivo, 2.5 mg/kg
Excerpt: Swiss albino male mice (˜20 g) were used for the in vivo toxicity study. Male Sprague-Dawley (SD) rats were used for electrocardiogram (ECG) monitoring (3-4 weeks old, ˜80-100 g) and the Langendorff isolated perfused heart experiments (8 weeks old, ˜250 g). Animals were acquired from the university Laboratory Animal Center (LAC) and were acclimatized to the Animal Holding Unit surroundings for at least 3 days prior to the experiments. Animals were kept under standard conditions with food and water available ad lib. All animal experiments were conducted according to the protocol (776/05a) approved by the Institutional Animal Care and Use Committee (IACUC) of the National University of Singapore.
The protein was dissolved in 200 μl of 0.9% NaCl (Braun, Malaysia) and administered through the intra-peritoneal (i.p.) route for the in vivo toxicity study in mice. Intra-tail vein (i.t.v.) administration was done in the ECG monitoring study in rats. The various protein doses were dissolved in 200 μl of 0.9% NaCl solution and injected into the tail vein using a 27 G ½ needle (Becton Dickinson, Franklin Lakes, N.J.) held at an angle of about 10° to the tail. […]
After purification of the protein from snake venom, i.p. doses of 1 mg/kg, 10 mg/kg and 100 mg/kg were administered to healthy male mice (three animals per group) and the symptoms were observed and recorded. […]

Question: How did the symptoms turn out when α-bungarotoxin [reference compound] was run?
Answer: Its symptoms is “severe paralysis of the hind limbs”.
